20 molecules from US20120213794A1 (published 2012) can be followed below.

Changes are numbered by the printed parent chain.

B1: AX213 Fab (Fab, V domains shown)
VH: QVQLLESGGGLVQPGGSLRLSCKASGYTFSRYGINWVRQAPGKGLEWIGRIDPGNGGTRYNEKFKGKATISRDNSKNTLYLQMNSLRAEDTAVYYCARANDGYSFDYWGQGTLVTVSS
VL: EIVLTQSPATLSLSPGERATITCRASQYVGSYLNWYQQKPGQAPRLLIYDASNRATGIPARFSGSGSGTDFTLTISSLEPEDFAVYYCQVWDSSPPVVFGGGTKVEIKR
B2: AX211 Fab (Fab, V domains shown)
VH: B1 VH with Y32Q, I34F, N35T, R50W, A99Y, N100R, D101V, F105L
VL: EIVLTQSPATLSLSPGERATITCRASQYVGSYLNWYQQKPGQAPRLLIYDASNRATGIPARFSGSGSGTDFTLTISSLEPEDFAVYYCQVWDSSPPVVFGGGTKVEIK
B3: AX212 Fab (Fab, V domains shown)
VH: QVQLLESGGGLVQPGGSLRLSCKASGYTFSSYSFSWVRQAPGKGLEWIGYIDPGSGGTKYNQKFQGKATISRDNSKNTLYLQMNSLRAEDTAVYYCARQRVGYSLDYWGQGTLVTVSS
VL: B2 VL
B4: AX210 Fab (Fab, V domains shown)
VH: B3 VH with F34I, S35Y, Y50W, S55N, K59R, G66S, Q99A
VL: B2 VL
B5: AX213 IgG2 (antibody, V domains shown)
VH: B1 VH with Q1E
VL: B1 VL
B6: AX212 IgG2 (antibody, V domains shown)
VH: B3 VH
VL: B2 VL
B7: AX114 IgG2 (antibody, V domains shown)
VH: EVQLLESGGGLVQPGGSLRLSCKASGYTFSSYGMYWVRQAPGKGLEWIGWIDPGSGGTKYNEKFKGKATISRDNSKNTLYLQMNSLRAEDTAVYYCARERYGYYFDYWGQGTLVTVSS
VL: B2 VL with S31T, V98A
B8: AX213 Fab (Fab, V domains shown)
VH: B1 VH
VL: B1 VL
B9: AX210 Fab (Fab, V domains shown)
VH: B3 VH with F34I, S35Y, Y50W, S55N, K59R, G66S, Q99A
VL: B2 VL
notes: Tested as purified Fab
B10: AX139 Fab (Fab, V domains shown)
VH: B7 VH
VL: B2 VL with S52A
notes: Tested as purified Fab
B11: AX211 Fab (Fab, V domains shown)
VH: B1 VH with Y32Q, I34F, N35T, R50W, A99Y, N100R, D101V, F105L
VL: B2 VL
notes: Tested as purified Fab
B12: AX137 Fab (Fab, V domains shown)
VH: B7 VH
VL: B2 VL with V29I, V90A
notes: Tested as purified Fab
B13: AX212 Fab (Fab, V domains shown)
VH: B3 VH
VL: B2 VL
notes: Tested as purified Fab
B14: AX114 Fab (Fab, V domains shown)
VH: B7 VH
VL: B2 VL with S31T, V98A
notes: Tested as purified Fab from E. coli TG1
B15: AX213 IgG (antibody, V domains shown)
VH: B1 VH with Q1E
VL: B1 VL
B16: AX114 IgG (antibody, V domains shown)
VH: B7 VH
VL: B2 VL with S31T, V98A
notes: Purified IgG; also called AX114-IgG2
B17: AX210 IgG (antibody, V domains shown)
VH: B3 VH with F34I, S35Y, Y50W, S55N, K59R, G66S, Q99A
VL: B2 VL
notes: Purified IgG
B18: AX137 IgG (antibody, V domains shown)
VH: B7 VH
VL: B2 VL with V29I, V90A
notes: Purified IgG
B19: AX211 IgG (antibody, V domains shown)
VH: B1 VH with Y32Q, I34F, N35T, R50W, A99Y, N100R, D101V, F105L
VL: B2 VL
notes: Purified IgG
B20: AX212 IgG (antibody, V domains shown)
VH: B3 VH
VL: B2 VL
notes: Purified IgG

One assay addresses T1, human PCSK9 (human, UniProt Q8NBP7 31-692). Nature of the assay: cell-based or functional assay.
T1 sequence (Q8NBP7 31-692 limits assumed): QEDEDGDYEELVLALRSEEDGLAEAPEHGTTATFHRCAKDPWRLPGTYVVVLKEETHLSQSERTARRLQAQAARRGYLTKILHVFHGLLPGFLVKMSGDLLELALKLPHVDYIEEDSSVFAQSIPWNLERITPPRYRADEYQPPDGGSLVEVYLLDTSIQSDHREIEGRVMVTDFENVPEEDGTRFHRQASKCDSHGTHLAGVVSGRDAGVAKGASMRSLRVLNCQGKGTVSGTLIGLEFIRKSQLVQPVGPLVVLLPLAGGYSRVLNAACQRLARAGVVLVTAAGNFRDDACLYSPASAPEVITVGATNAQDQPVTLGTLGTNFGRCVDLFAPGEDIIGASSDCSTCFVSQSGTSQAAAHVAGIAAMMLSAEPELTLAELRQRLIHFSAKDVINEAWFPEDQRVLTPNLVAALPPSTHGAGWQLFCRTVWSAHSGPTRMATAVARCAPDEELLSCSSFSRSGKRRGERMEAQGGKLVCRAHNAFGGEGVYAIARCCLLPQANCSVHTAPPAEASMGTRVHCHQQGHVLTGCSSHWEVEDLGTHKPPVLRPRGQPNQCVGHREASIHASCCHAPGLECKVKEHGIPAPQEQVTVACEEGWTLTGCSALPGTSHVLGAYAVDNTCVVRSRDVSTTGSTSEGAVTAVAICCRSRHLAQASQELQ
For the molecule B1, the “Fab IC50 (nM), inhibition of PCSK9 on LDL uptake” value was found to be 14.7 nM.
As for B2, the “Fab IC50 (nM), inhibition of PCSK9 on LDL uptake” value worked out at 12.6 nM.
Still for that read-out and setting: in the case of B3 it was 13.8 nM; in that of B4, 26.8 nM.

Another assay concerns the target T1, human PCSK9. Nature of the assay: cell-based or functional assay. This is another data set of the same source.
B5: the “IgG2 IC50 (nM), inhibition of PCSK9 (LDL uptake assay)” value (“IgG2 IC50 (nM), inhibition of PCSK9” below) came to 11.1 nM.
The same measure, in the same setting: in the case of B6 it was 9.5 nM.
Still for that read-out and setting: in the case of B7 it was 36.6 nM.

The target in another assay is rhesus PCSK9 (rhesus, UniProt A8T666 31-692, limits assumed). Nature of the assay: cell-based or functional assay.
Chain of rhesus PCSK9 (A8T666 31-692 limits assumed): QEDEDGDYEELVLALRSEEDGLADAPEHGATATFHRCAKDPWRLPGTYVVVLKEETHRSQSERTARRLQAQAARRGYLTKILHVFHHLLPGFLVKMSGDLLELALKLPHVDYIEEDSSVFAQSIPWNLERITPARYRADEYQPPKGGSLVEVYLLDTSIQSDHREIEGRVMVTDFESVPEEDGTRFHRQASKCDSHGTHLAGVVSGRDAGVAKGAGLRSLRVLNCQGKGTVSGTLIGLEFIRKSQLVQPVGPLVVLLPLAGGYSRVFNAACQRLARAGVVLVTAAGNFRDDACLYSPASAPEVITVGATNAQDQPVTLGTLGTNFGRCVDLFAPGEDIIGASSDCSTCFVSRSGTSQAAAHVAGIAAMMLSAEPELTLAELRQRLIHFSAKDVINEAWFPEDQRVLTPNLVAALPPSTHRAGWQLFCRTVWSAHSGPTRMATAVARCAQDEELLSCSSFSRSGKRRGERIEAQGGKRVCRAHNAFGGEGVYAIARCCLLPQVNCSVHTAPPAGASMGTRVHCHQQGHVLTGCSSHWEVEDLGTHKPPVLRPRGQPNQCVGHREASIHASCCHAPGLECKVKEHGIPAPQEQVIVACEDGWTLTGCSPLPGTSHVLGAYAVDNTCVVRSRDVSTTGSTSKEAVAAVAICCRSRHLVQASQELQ
Regarding B5, the “IgG2 IC50 (nM), inhibition of PCSK9” value amounted to 10.2 nM.
The same measure, in the same setting: next, B6: 4.7 nM; B7: 14.4 nM.

The target of a further assay is murine PCSK9 (mouse, UniProt Q80W65 35-694, limits assumed). The experiment in a line: cell-based or functional assay.
Chain of murine PCSK9 (Q80W65 35-694 limits assumed): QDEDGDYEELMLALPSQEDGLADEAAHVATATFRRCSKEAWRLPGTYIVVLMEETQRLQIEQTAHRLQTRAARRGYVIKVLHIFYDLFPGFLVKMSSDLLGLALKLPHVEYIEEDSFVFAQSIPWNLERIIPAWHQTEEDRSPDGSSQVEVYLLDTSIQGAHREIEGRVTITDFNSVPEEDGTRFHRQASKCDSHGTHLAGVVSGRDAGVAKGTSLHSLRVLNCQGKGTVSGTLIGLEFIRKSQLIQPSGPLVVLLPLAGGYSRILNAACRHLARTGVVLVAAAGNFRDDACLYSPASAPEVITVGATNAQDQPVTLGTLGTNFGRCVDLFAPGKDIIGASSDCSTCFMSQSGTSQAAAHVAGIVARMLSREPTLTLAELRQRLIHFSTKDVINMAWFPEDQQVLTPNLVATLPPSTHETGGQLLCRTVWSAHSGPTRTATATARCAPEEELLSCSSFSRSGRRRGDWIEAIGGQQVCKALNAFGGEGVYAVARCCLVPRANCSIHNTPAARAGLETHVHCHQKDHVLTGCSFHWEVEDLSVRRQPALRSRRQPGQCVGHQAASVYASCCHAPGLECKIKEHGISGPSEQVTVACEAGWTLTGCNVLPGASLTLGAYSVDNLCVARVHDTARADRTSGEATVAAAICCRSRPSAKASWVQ
B5: the “IgG2 IC50 (nM), inhibition of PCSK9” value worked out at 7 nM.
As for B6, the “IgG2 IC50 (nM), inhibition of PCSK9” value was determined as 7.3 nM.
The same measure, in the same setting: next, B7: 27.4 nM.

A further assay has as its target T2, human PCSK9 (human, UniProt Q8NBP7 31-692).
T2 construct: also called hPCSK9; proprotein convertase subtilisin-kexin type 9
Nature of the assay: SPR (Biacore), Fab captured by anti-Fab IgG, 1:1 fit. How it is done:
Biacore assay was developed. First, goat anti-Fab IgGs were immobilized onto CM5 chip by amine coupling as described above. The anti-Fab IgGs were diluted to 200 μg/ml in pH 5/10 mM Acetate solution, and injected onto the NHS/EDC activated surface to achieve an immobilization level of ˜10,000 RU, followed with surface inactivation by injection of Ethanolamine. Then Fab samples at concentration of 2 μg/ml in HBS-P running buffer were injected for 3 minutes at flow speed of 20 ul/min, followed with K-injection (3 minutes injection for association and 6 minutes for dissociation) of PCSK9 at concentration of 10 to 100 nM. The sensor chip surface was regenerated by 30 second injection of 100 mM phosphoric acid. The binding sensorgrams were fitted with 1:1 Langmuir binding model to determine the binding affinity.
T2 sequence (Q8NBP7 31-692 limits assumed): as the sequence (Q8NBP7 31-692 limits assumed) above
Regarding B8, binding was characterised by a dissociation constant (Kd) of 1.37 nM, the koff came to 0.000329 s⁻¹ and the kon amounted to 243000 M⁻¹ s⁻¹.
For B9, in that order: 1.67 nM, 0.000287 s⁻¹ and 172000 M⁻¹ s⁻¹.
In the same order, the values of B10 are 13.2 nM, 0.00118 s⁻¹ and 89700 M⁻¹ s⁻¹.
In the same order, the values of B11 are 1.67 nM, 0.000329 s⁻¹ and 197000 M⁻¹ s⁻¹.
On to B12, for which the Kd is 19.5 nM, the koff amounted to 0.00208 s⁻¹ and the kon worked out at 107000 M⁻¹ s⁻¹.
In the same order, the values of B13 are 1.47 nM, 0.000233 s⁻¹ and 159000 M⁻¹ s⁻¹.
Turning to B14, binding was put at a Kd of 48.5 nM, the koff was determined as 0.00348 s⁻¹ and the kon amounted to 71700 M⁻¹ s⁻¹.

Another assay concerns the target T3, human PCSK9 (human, UniProt Q8NBP7 31-692).
T3 construct: Secreted PCSK9 is autocleaved into prodomain and mature chain, and a His-tag is named for the HEK293 constructs; also called hPCSK9; proprotein convertase subtilisin-kexin type 9
The experiment in a line: SPR (Biacore), IgG captured by anti-human IgG, PCSK9 injected at 3.75-60 nM. How it is done:
The affinities of those IgG molecules were also measured by Biacore assay. Briefly, anti-human IgG monoclonal antibody form Human Antibody Capture Kit provided by Biacore was immobilized on CM5 chips at level of 8000 to 10000 RU. The IgG samples at concentration of ˜0.4 μg/ml was injected onto a sensor chip for 2 minutes at a flow rate of 20 μl/min, then PCSK9 proteins at 5 concentrations (3.75 to 60 nM) were injected onto an IgG captured flow cell for binding kinetic analysis. After each round injection, the sensor chip surface was regenerated by 30 second injection of 3M Magnesium Chloride.
T3 sequence (Q8NBP7 31-692 limits assumed): as above
Molecule B15 registered a Kd of 2.07 nM, a koff of 0.00073 s⁻¹ and a kon of 353000 M⁻¹ s⁻¹.
For B16, in that order: 24 nM, 0.00361 s⁻¹ and 151000 M⁻¹ s⁻¹.
In the same order, the values of B17 are 2.64 nM, 0.000621 s⁻¹ and 235000 M⁻¹ s⁻¹.
For B18, in that order: 9.98 nM, 0.00332 s⁻¹ and 333000 M⁻¹ s⁻¹.
B19 displayed a Kd of 1.63 nM, a koff of 0.000589 s⁻¹ and a kon of 361000 M⁻¹ s⁻¹.
In the same order, the values of B20 are 2.12 nM, 0.000324 s⁻¹ and 153000 M⁻¹ s⁻¹.
